{"source": "paper doi:10.1101/2024.01.23.576903", "biological_target": "ζ subunit (F420-reductase subunit) of the ACDS CODH subcomplex from Candidatus Ethanoperedens thermophilum (Candidatus Ethanoperedens thermophilum)", "test": "crystal structure", "data": [{"substance": "ζ subunit (F420-reductase subunit) of the ACDS CODH subcomplex from Candidatus Ethanoperedens thermophilum (natural protein)", "values": [{"measurement": "stoichiometry N", "result": 2}]}]}
